Consider four molecules from PMC5467005, “Functional Characterization of Tea (Camellia sinensis) MYB4a Transcription Factor Using an Integrative Approach”.

This data set concerns the target CsMYB4a (Camellia sinensis, UniProt A0A1V0G0T8 1-244). As to the kind of experiment: EMSA; Not given; EMSA according to Shen et al. 2012; salmon sperm DNA as non-specific competitor. As to conditions: protein: recombinant; tags: N-terminal His-tag; blunt.

Sequence of CsMYB4a (A0A1V0G0T8 entry or part of it): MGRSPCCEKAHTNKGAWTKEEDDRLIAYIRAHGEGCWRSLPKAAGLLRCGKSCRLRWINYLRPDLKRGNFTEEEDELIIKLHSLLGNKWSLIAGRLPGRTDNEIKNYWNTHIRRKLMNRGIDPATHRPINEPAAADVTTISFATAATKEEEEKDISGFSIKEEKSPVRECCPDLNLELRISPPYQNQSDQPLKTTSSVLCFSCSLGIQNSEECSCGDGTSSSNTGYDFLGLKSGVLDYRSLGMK

B1: AC-I probe (dsDNA)
DNA 1: CGGTACCAGTCCACCTACCGCCACCTACCGCCACCTACCGCTGTTCTCGA
DNA 2: TCGAGAACAGCGGTAGGTGGCGGTAGGTGGCGGTAGGTGGACTGGTACCG
On to B1, for which the binding result is “binds”.

B2: AC-II probe (dsDNA)
DNA 1: CGGTACCAGTCCACCAACCGCCACCAACCGCCACCAACCGCTGTTCTCGA
DNA 2: TCGAGAACAGCGGTTGGTGGCGGTTGGTGGCGGTTGGTGGACTGGTACCG
For the molecule B2, the binding result is given as “binds”.

B3: AC-III probe (dsDNA)
DNA 1: CCAGTCCACCTAACTCTACCTAACTCTACCTAACGCTGTTC
DNA 2: GAACAGCGTTAGGTAGAGTTAGGTAGAGTTAGGTGGACTGG
Consider B3, for which the binding result is listed as “binds”.

B4: AC-IV probe (dsDNA)
DNA 1: CCAGTCCACCAAACTCTACCAAACTCTACCAAACGCTGTTC
DNA 2: GAACAGCGTTTGGTAGAGTTTGGTAGAGTTTGGTGGACTGG
Consider B4, for which the binding result is “binds”.
